± gives the standard deviation of the averaged measurements.
System: ATP
Assay: switch fluorescence ratio, 500 uM ATP over buffer (Cy3 cluster intensity, sum of 5 cycles each) (fold (ratio)); higher = stronger signal-on switching upon ATP binding; sequences stand for … in TCGTCGGCAGCGTCAGATGTGTATAAGAGACAGTTTTTTTTTTTTTTTTTTTTTTTTT…TC
Details: aptamer strand: ATP DNA aptamer (quencher-CACCTGGGGGAGTATTGCGGAGGAAGG + anchor), 100 nM annealed; ATP concentration: 500 uM
Summary of the method: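 Values give the fluorescence ratio for each switch-domain sequence, averaged from per-cluster ratios of summed target-cycle to summed buffer-cycle Cy3 intensity. The Cy3-labelled switching-strand clusters sat on a modified Illumina MiSeq flow-cell, were annealed to 100 nM quencher-labelled ATP aptamer, and were imaged in selection buffer, then after 15 min with 500 uM ATP at 22 °C. Five cycles ran with NaOH stripping and re-annealing between them, and clusters outside 100-1000 RFU were excluded.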
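Further: ATP exposure 15 min at 22 °C before imaging.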

| Sequence | switch fluorescence ratio |
| --- | --- |
| GGAAAGGGAG | 0.97 ± 0.02 |
| GGAAAGGGGC | 0.95 ± 0.053 |
| GGAAAGTCGT | 1.03 ± 0.018 |
| GGAAATATTT | 0.98 ± 0.016 |
| GGAAATGGGC | 0.97 ± 0.042 |
| GGAAATGTTT | 1.01 ± 0.026 |
| GGAAATTGTG | 1.04 ± 0.052 |
| GGAACAGCGG | 1.001 ± 0.0016 |
| GGAACGAAGA | 0.98 ± 0.028 |
| GGAACGAGAG | 0.989 ± 0.03 |
| GGAACGGGGC | 0.961 ± 0.06 |
| GGAACGGGTG | 1.09 ± 0.17 |
| GGAACGTGTT | 1.004 ± 0.0097 |
| GGAACTCATG | 0.959 ± 0.046 |
| GGAACTTAAG | 0.9794 ± 0.0043 |
| GGAACTTGGT | 0.928 ± 0.087 |
| GGAAGAGGAA | 0.988 ± 0.025 |
| GGAAGAGGTG | 1.09 ± 0.022 |
| GGAAGATTTG | 1.06 ± 0.055 |
| GGAAGCGAAC | 1.47 ± 0.067 |
| GGAAGCGGGT | 0.994 ± 0.042 |
| GGAAGGAGTG | 0.987 ± 0.036 |
| GGAAGGGCTT | 1 ± 0.034 |
| GGAAGGGGAA | 1.01 ± 0.028 |
| GGAAGGGGAT | 0.9986 ± 0.0061 |

| Sequence | switch fluorescence ratio |
| --- | --- |
| GGAAGGTA | 0.997 ± 0.03 |
| GGAAGTAGGA | 0.98839 ± 0.00067 |
| GGAAGTAGGT | 0.988 ± 0.02 |
| GGAAGTCTCA | 0.975 ± 0.012 |
| GGAAGTGGTA | 0.976 ± 0.021 |
| GGAAGTTGTA | 1.07 ± 0.13 |
| GGAATAGGGA | 0.982 ± 0.052 |
| GGAATAGTGC | 1.01 ± 0.052 |
| GGAATATAAC | 1 ± 0.045 |
| GGAATATGC | 1.13 ± 0.1 |
| GGAATCAAAC | 0.996 ± 0.0094 |
| GGAATCTGCC | 1.14 ± 0.024 |
| GGAATGACGG | 1.012 ± 0.0024 |
| GGAATGGGTT | 1.01 ± 0.023 |
| GGAATGTGCA | 0.987 ± 0.023 |
| GGAATGTGGT | 1.027 ± 0.002 |
| GGAATTAGTG | 0.995 ± 0.025 |
| GGAATTGAGT | 1.02 ± 0.021 |
| GGAATTGGGG | 1.01 ± 0.027 |
| GGACAAAAAC | 1.02 ± 0.013 |
| GGACAAAAGA | 0.984 ± 0.011 |
| GGACACTGGT | 1.06 ± 0.041 |
| GGACAGGCGC | 1.006 ± 0.0024 |
| GGACATGGCG | 0.943 ± 0.019 |
| GGACATTCGC | 1.04 ± 0.013 |

| Sequence | switch fluorescence ratio |
| --- | --- |
| GGACCGGACG | 1.106 ± 0.0093 |
| GGACCTGCTG | 0.969 ± 0.0033 |
| GGACGAATGG | 1.02 ± 0.013 |
| GGACGATGGG | 0.995 ± 0.045 |
| GGACGGGGAT | 1 ± 0.015 |
| GGACGGGTGT | 0.996 ± 0.011 |
| GGACGGGTTT | 1 ± 0.031 |
| GGACGTAGTA | 1.006 ± 0.0071 |
| GGACGTATTA | 1.03 ± 0.051 |
| GGACGTGGGG | 0.953 ± 0.069 |
| GGACGTGGTA | 1.03 ± 0.028 |
| GGACTAGATG | 0.978 ± 0.013 |
| GGACTATGCG | 0.985 ± 0.032 |
| GGACTCCTAG | 0.995 ± 0.028 |
| GGACTGCGGT | 0.979 ± 0.022 |
| GGACTGCTGG | 1.03 ± 0.033 |
| GGACTTGTTT | 0.984 ± 0.022 |
| GGACTTTGGC | 0.983 ± 0.042 |
| GGACTTTTTG | 0.953 ± 0.045 |
| GGAGAACGAT | 1.03 ± 0.027 |
| GGAGAAGTCC | 1.03 ± 0.093 |
| GGAGAAGTGG | 0.976 ± 0.034 |
| GGAGAATGCC | 1.04 ± 0.053 |
| GGAGAATGCG | 1.02 ± 0.013 |
| GGAGAATTTT | 1.04 ± 0.049 |

| Sequence | switch fluorescence ratio |
| --- | --- |
| GGAGACTTGA | 0.986 ± 0.024 |
| GGAGAGGAAT | 1.01 ± 0.044 |
| GGAGAGGGAG | 0.9883 ± 0.0015 |
| GGAGAGGGTA | 1.01 ± 0.035 |
| GGAGATATCA | 1.035 ± 0.0074 |
| GGAGATGCAG | 0.969 ± 0.046 |
| GGAGATGCTA | 0.9616 ± 0.0059 |
| GGAGATGTCA | 1.013 ± 0.0081 |
| GGAGATTGAT | 1 ± 0.021 |
| GGAGATTTTA | 1.04 ± 0.068 |
| GGAGCGAAGT | 1.16 ± 0.26 |
| GGAGCGAGAG | 3.37 ± 0.28 |
| GGAGCGATGG | 3.31 ± 1.2 |
| GGAGCTGGGG | 1.04 ± 0.065 |
| GGAGCTTGCA | 1.02 ± 0.023 |
| GGAGGCAGTT | 0.9738 ± 0.006 |
| GGAGGCATAT | 1.13 ± 0.039 |
| GGAGGCGGAG | 1.002 ± 0.0077 |
| GGAGGCTGGT | 1.018 ± 0.01 |
| GGAGGGAGTT | 1.03 ± 0.049 |
| GGAGGGCAAC | 1.01 ± 0.028 |
| GGAGGGCGTC | 0.952 ± 0.0048 |
| GGAGGGGAGC | 0.974 ± 0.056 |
| GGAGGGGGTA | 1.01 ± 0.016 |
| GGAGGGGGTG | 0.989 ± 0.044 |
